Results taken from patent US20170226225A1 (Merck Sharp & Dohme, published 2017).
Where a chain is given by its changes, count along the chain named. Names may count otherwise.

What was measured:
[1] = molecular target: T1, human coagulation Factor XI (FXI) zymogen (human, UniProt P03951 19-625); assay: cell-based or functional assay
[2] = molecular target: T1, human coagulation Factor XI (FXI) …; assay: cell-based or functional assay; remark: listed apart in the source
[3] = molecular target: T2, cynomolgus monkey FXI zymogen (cynomolgus monkey, UniProt A0A2K5VVW4 19-624); assay: cell-based or functional assay
[4] = molecular target: T3, rhesus monkey FXI zymogen (rhesus monkey, UniProt F6PJ95 19-624); assay: cell-based or functional assay
[5] = molecular target: T1, human coagulation Factor XI (FXI) …; assay: SPR (ProteOn XPR36), antibody captured by anti-human IgG, FXI as analyte; mean ± SD, N=3
Experimental: (§1) 1 M ethanolamine HCl is then injected across all six vertical flow channels to neutralize remaining reactive surface amines. The anti-FXI antibodies are then injected at 25 μL/minutes for 60 seconds, each into a distinct vertical flow channel coated with capture antibody (L2, L3, L4, L5, or L6), at a concentration of 5 μg/mL in 10 mM sodium acetate, pH 5.0, to achieve saturating capture levels of approximately 80 RU; vertical flow channel L1 is injected with 10 mM sodium acetate, pH 5.0 (buffer alone), as a reference control. After capture of anti-FXI antibodies, running buffer (1×HBS-N, 5 mM CaCl₂, 0.005% P20, pH 7.4) is injected across all horizontal flow channels (A1-A6) for 5 minutes and allowed to dissociate for 20 minutes at 25 μL/minutes to remove any non-specifically bound anti-FXI antibodies from the chip surface. To measure on-rate (kₐ) of human FXI to captured anti-FXI antibodies, a 6-point titration of human FXI zymogen (0, 0.25, 0.5, 1.0, 2.0, 4.0 nM diluted in running buffer) is subsequently injected horizontally across all six vertical flow channels for 8 minutes; the bound zymogen is then allowed to dissociate for 60 minutes in running buffer at 25 μL/min to measure off-rate (kd). Binding kinetics and affinity (KD) may be determined using instrument-specific software (Bio-Rad).
(§2) A GLC low-density sensor chip is washed across all vertical and horizontal flow channels with 0.5% sodium dodecyl-sulfate, 50 mM sodium hydroxide, and 100 mM hydrochloric acid for 60 seconds at 30 μL/second flow rate.

[6] = molecular target: T2, cynomolgus monkey FXI zymogen; assay: as above
Experimental: as §1, §2

[7] = molecular target: T3, rhesus monkey FXI zymogen; assay: as above
Experimental: as §1, §2

human FXIa = human FXIa (human, UniProt P03951 19-625); assay: SPR (ProteOn XPR36), antibody captured by anti-human IgG, FXIa as analyte; mean ± SD, N=3
cynomolgus monkey FXIa = cynomolgus monkey FXIa (cynomolgus monkey, UniProt A0A2K5VVW4 19-624); assay: as above

B1: αFXI-13716-IgG4 (S228P) Q1E M103L (K-)/kappa (antibody, V domains shown)
VH: EVQLVQSGAEVKKPGASVKVSCKASGYTFTSYSMHWVRQAPGQGLEWMGIINPSGGSTSYAQKFQGRVTMTRDTSTSTVYMELSSLRSEDTAVYYCARGAYLLELYYYYGMDVWGQGTTVTVSS
VL: EIVMTQSPATLSVSPGERATLSCRASQSVSSNLAWYQQKPGQAPRLLIYGASTRATGIPARFSGSGSGTEFTLTISSLQSEDFAVYYCQQFNDWPLTFGGGTKVEIKR
notes: Human IgG4 S228P heavy chain with Q1E and M103L, lacking the C-terminal lysine; kappa light chain
- FXIa Activation Inhibition (EC50, nM); autoactivation of FXI on dextran sulfate, Z-GPR-AFC cleavage [1]: 11 nM
- aPTT in human plasma: concentration that prolongs clotting time by 50% (1.5x) [2]: 20.9 nM
- aPTT in cynomolgus monkey plasma: concentration that prolongs clotting time by 50% (1.5x) [3]: 21.1 nM
- aPTT in rhesus monkey plasma: concentration that prolongs clotting time by 50% (1.5x) [4]: 17.4 nM
- Kd [5]: 2.5 pM
- Kd [6]: 6.9 pM
- Kd [7]: 2 pM
- Kd (human FXIa): 1.1 pM
- Kd (cynomolgus monkey FXIa): 3.3 pM

B2: αFXI-13716p-IgG4 (S228P) (K-)/kappa (antibody, V domains shown)
VH: B1 VH with E1Q, L103M
VL: B1 VL
notes: Human IgG4 S228P heavy chain lacking the C-terminal lysine; kappa light chain; also called α13716p-IgG4 (S228P) (K-)/kappa
- FXIa Activation Inhibition (EC50, nM); autoactivation of FXI on dextran sulfate, Z-GPR-AFC cleavage [1]: 4 nM
- aPTT in human plasma: concentration that prolongs clotting time by 50% (1.5x) [2]: 21.6 nM
- aPTT in cynomolgus monkey plasma: concentration that prolongs clotting time by 50% (1.5x) [3]: 22.5 nM
- aPTT in rhesus monkey plasma: concentration that prolongs clotting time by 50% (1.5x) [4]: 19.4 nM
- Kd [5]: 3.5 pM
- Kd [6]: 7.5 pM
- Kd [7]: 3.1 pM
- Kd (human FXIa): 1.3 pM
- Kd (cynomolgus monkey FXIa): 3.7 pM

B3: αFXI-13654p-IgG4 (S228P) (K-)/kappa (antibody, V domains shown)
VH: EVQLVESGGGLVKPGGSLRLSCAASGFTFSSYSMNWVRQAPGKGLEWVSSISSSSSYIYYADSVKGRFTISRDNAKNSLYLQMNSLRAEDTAVYYCARSYYDYDQGYGMDVWGQGTTVTVSS
VL: DIQMTQSPSSVSASVGDRVTITCRASQGISSWLAWYQQKPGKAPKLLIYAASSLQSGVPSRFSGSGSGTDFTLTISSLQPEDFATYYCQQVNSYPITFGGGTKVEIKR
notes: Human IgG4 S228P heavy chain lacking the C-terminal lysine; kappa light chain
- FXIa Activation Inhibition (EC50, nM); autoactivation of FXI on dextran sulfate, Z-GPR-AFC cleavage [1]: 10 nM
- aPTT in human plasma: concentration that prolongs clotting time by 50% (1.5x) [2]: 16.8 nM
- aPTT in cynomolgus monkey plasma: concentration that prolongs clotting time by 50% (1.5x) [3]: 21.6 nM
- aPTT in rhesus monkey plasma: concentration that prolongs clotting time by 50% (1.5x) [4]: 25 nM
- Kd [5]: 26.5 pM
- Kd [6]: 12.9 pM
- Kd [7]: 26.6 pM
- Kd (human FXIa): 9 pM
- Kd (cynomolgus monkey FXIa): 2 pM
